“And” between values parts separate entries of the source, which are not always exact repeats. Equal values may be shown once. Read-outs that look alike come from different tables or passages of the source. No end group written: not given here. *: point of attachment. AMC = Cc1cc(=O)oc2cc(N*)ccc12
How the values were obtained:
Controls [1] = assay type: biochemical
LpApaH (3) = LpApaH (3) (Legionella pneumophila, UniProt A0A2S6EWV0); assay type: biochemical
VcHdaH (5b) = assay type: biochemical, Vibrio cholerae
PsApaH (4) = PsApaH (4) (Pseudomonas sp. M30-35, UniProt A0A1Y0KY79); assay type: biochemical
Method: (§1) Experiments with SIRT2 and SIRT5 were supplemented with NAD^+ (500 µM). Thereafter, a solution of trypsin (25 µL, 5.0 mg/mL; final concentration of 2.5 mg/mL) was added, and the development of the assay was allowed to proceed for 90 min at room temperature before fluorescence analysis. […] To this end, a single category is given to all conversions >48% on the heatmap. […] For the H4-derived peptide LGKbio no positive control was available.

LcApaH (3) = LcApaH (3) (Legionella cherrii, UniProt A0A0W0SGS1); assay type: biochemical
RsPrpH (1b) = experiment: Substrate screening assay (acyl-peptide-AMC); assay type: biochemical, Rhizorhabdus sp.
VsHdaH (1b) = assay type: biochemical, Vibrio sp.
BsAcuC (2c) = target: T1, BsAcuC (2c) (Bacillus subtilis, UniProt P39067); experiment: Substrate screening assay (acyl-peptide-AMC); assay type: biochemical
T1 construct: made in house; host or cells: E. coli BL21 (DE3)
T1 sequence (P39067 1-387): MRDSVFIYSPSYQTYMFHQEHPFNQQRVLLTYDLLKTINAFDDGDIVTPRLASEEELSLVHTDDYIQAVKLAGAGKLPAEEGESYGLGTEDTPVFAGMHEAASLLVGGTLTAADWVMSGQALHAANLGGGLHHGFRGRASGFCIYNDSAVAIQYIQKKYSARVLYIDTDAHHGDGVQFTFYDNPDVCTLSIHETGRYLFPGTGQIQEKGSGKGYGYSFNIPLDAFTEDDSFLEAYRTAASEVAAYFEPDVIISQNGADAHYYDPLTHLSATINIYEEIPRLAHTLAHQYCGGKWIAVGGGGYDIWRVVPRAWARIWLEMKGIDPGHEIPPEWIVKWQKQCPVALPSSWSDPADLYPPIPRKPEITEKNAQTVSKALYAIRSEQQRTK
Method: as §1

KpHdaH (1b) = KpHdaH (1b) (Klebsiella pneumoniae, UniProt A0A377Z5F6); assay type: biochemical
Controls [2] = assay type: biochemical; remark: listed apart in the source
RwDmhA (1b) = RwDmhA (1b) (Rhizorhabdus wittichii, UniProt A0A067XIQ6); assay type: biochemical
[3] = substrate screening, mean of two measurements
[4] = two measurements, single values
[5] = substrate screening, measurement 1 of two
[6] = substrate screening, measurement 2 of two

QPKKoct (QPKK-{AMC}; not fully specified (residue 4); printed as QPKKoct; also: octanoyl-lysine (which Lys not given here); UniProt P04637 317-320, looked up, fragment)
[AMC] (nM), controls, means (Controls [1]): 8145.02 nM | RFU means, LpApaH (3) (LpApaH (3)): 63 RFU | RFU*2, LpApaH (3) (LpApaH (3)): 110 RFU*2 and 142 RFU*2 | RFU*2 means, LpApaH (3) (LpApaH (3)): 126 RFU*2 | RFU, LpApaH (3) (LpApaH (3)): 55 RFU and 71 RFU | [AMC] (nM), LpApaH (3) (LpApaH (3)): 53.71 nM and 69.34 nM | [AMC] (nM), LpApaH (3), means (LpApaH (3)): 61.52 nM | RFU means, VcHdaH (5b) (VcHdaH (5b); means of two measurements): 71 RFU | RFU*2 means, VcHdaH (5b) (VcHdaH (5b); means of two measurements): 142 RFU*2 | [AMC] (nM), VcHdaH (5b), means (VcHdaH (5b); [3]): 69.34 nM | RFU*2, VcHdaH (5b) (VcHdaH (5b); [4]): 138 RFU*2 and 146 RFU*2 | RFU, VcHdaH (5b) (VcHdaH (5b); [4]): 69 RFU and 73 RFU | RFU means, PsApaH (4) (PsApaH (4); means of two measurements): 80.5 RFU | RFU*2 means, PsApaH (4) (PsApaH (4); means of two measurements): 161 RFU*2 | [AMC] (nM), PsApaH (4), means (PsApaH (4); [3]): 78.61 nM | [AMC] (nM), PsApaH (4) (PsApaH (4); [5]): 85.94 nM | [AMC] (nM), PsApaH (4) (PsApaH (4); [6]): 71.29 nM | RFU*2, PsApaH (4) (PsApaH (4); [4]): 146 RFU*2 and 176 RFU*2 | RFU, PsApaH (4) (PsApaH (4); [4]): 73 RFU and 88 RFU | RFU means, LcApaH (3) (LcApaH (3)): 186 RFU | RFU*2 means, LcApaH (3) (LcApaH (3)): 372 RFU*2 | [AMC] (nM), LcApaH (3), means (LcApaH (3)): 181.64 nM | RFU means, RsPrpH (1b) (RsPrpH (1b); means of two measurements): 38 RFU | RFU*2 means, RsPrpH (1b) (RsPrpH (1b); means of two measurements): 76 RFU*2 | [AMC] (nM), RsPrpH (1b), means (RsPrpH (1b); [3]): 37.11 nM | [AMC] (nM), RsPrpH (1b) (RsPrpH (1b); [5]): 3.91 nM | [AMC] (nM), RsPrpH (1b) (RsPrpH (1b); [6]): 70.31 nM | RFU means, VsHdaH (1b) (VsHdaH (1b); means of two measurements): 110.5 RFU | RFU*2 means, VsHdaH (1b) (VsHdaH (1b); means of two measurements): 221 RFU*2 | [AMC] (nM), VsHdaH (1b), means (VsHdaH (1b); [3]): 107.91 nM | [AMC] (nM), VsHdaH (1b) (VsHdaH (1b); [5]): 121.09 nM | [AMC] (nM), VsHdaH (1b) (VsHdaH (1b); [6]): 94.73 nM | RFU*2, VsHdaH (1b) (VsHdaH (1b); [4]): 248 RFU*2 and 194 RFU*2 | RFU, VsHdaH (1b) (VsHdaH (1b); [4]): 124 RFU and 97 RFU | RFU means, BsAcuC (2c) (BsAcuC (2c); means of two measurements): 2011.5 RFU | RFU*2 means, BsAcuC (2c) (BsAcuC (2c); means of two measurements): 4023 RFU*2 | [AMC] (nM), BsAcuC (2c), means (BsAcuC (2c); [3]): 1964.36 nM | RFU*2, BsAcuC (2c) (BsAcuC (2c); [4]): 4802 RFU*2 and 3244 RFU*2 | RFU means, KpHdaH (1b) (KpHdaH (1b); means of two measurements): -28 RFU | RFU*2 means, KpHdaH (1b) (KpHdaH (1b); means of two measurements): -56 RFU*2 | [AMC] (nM), KpHdaH (1b), means (KpHdaH (1b); [3]): -27.34 nM | [AMC] (nM), KpHdaH (1b) (KpHdaH (1b); [5]): -12.70 nM | [AMC] (nM), KpHdaH (1b) (KpHdaH (1b); [6]): -41.99 nM | RFU means, controls (Controls [2]): 8340.5 RFU | RFU*2, controls (Controls [2]): 13158 RFU*2 and 20204 RFU*2 | RFU*2 means, controls (Controls [2]): 16681 RFU*2 | RFU, controls (Controls [2]): 6579 RFU and 10102 RFU | RFU means, RwDmhA (1b) (RwDmhA (1b); means of two measurements): 64 RFU | RFU*2 means, RwDmhA (1b) (RwDmhA (1b); means of two measurements): 128 RFU*2 | [AMC] (nM), RwDmhA (1b), means (RwDmhA (1b); [3]): 62.50 nM | [AMC] (nM), RwDmhA (1b) (RwDmhA (1b); [5]): 51.76 nM | [AMC] (nM), RwDmhA (1b) (RwDmhA (1b); [6]): 73.24 nM | RFU*2, RwDmhA (1b) (RwDmhA (1b); [4]): 106 RFU*2 and 150 RFU*2 | RFU, RwDmhA (1b) (RwDmhA (1b); [4]): 53 RFU and 75 RFU

Reference: publication PMC11532494 (Nature Communications, 2024)
